Target: mutant of SARS CoV-2 S protein (69del, 70del, Y144del, N501Y, A570D, D614G, P681H, T7161, S982A, D1118H) (Severe acute respiratory syndrome coronavirus 2, UniProt P0DTC2, A570D/D1118H/D614G/DEL144-144/N501Y/P681H/S982A/T716I)

Substance: 212434 (NAAVLDIAQHSATEEIWWLPNLTKQQKVWFIMSLTQDPSVSKEVLGEAQKLNDSQAPK) [compound 212434]
- binding affinity to mutant S protein (B.1.1.7), qualitative: showed binding affinity
